T1: Borealin (endogenous), Q53HL2
T1 chain: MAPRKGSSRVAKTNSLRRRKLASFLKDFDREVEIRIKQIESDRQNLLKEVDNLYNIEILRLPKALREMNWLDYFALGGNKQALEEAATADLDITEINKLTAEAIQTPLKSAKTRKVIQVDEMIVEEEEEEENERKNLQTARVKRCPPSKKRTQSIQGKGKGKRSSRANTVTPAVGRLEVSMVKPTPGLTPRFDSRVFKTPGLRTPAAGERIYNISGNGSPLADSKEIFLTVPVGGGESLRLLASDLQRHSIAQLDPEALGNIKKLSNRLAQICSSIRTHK

T2: Aurora B (endogenous), Q96GD4
T2 chain: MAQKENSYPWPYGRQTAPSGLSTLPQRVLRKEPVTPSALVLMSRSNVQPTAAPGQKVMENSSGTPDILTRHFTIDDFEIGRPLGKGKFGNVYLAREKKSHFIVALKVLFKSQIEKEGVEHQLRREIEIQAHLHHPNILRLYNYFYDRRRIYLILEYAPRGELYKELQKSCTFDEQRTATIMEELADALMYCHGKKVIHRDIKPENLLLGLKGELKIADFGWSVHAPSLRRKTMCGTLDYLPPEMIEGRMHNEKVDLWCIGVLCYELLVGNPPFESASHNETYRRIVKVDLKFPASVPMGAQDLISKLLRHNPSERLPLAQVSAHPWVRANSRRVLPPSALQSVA


Key:
[1] = biological target: T1, Borealin (endogenous), Q53HL2; assay: LacO-LacI tethering assay, immunofluorescence in U-2 OS-LacO Haspin CM cells; conditions: chain shown with the change, n = 21 (mutant), n = 22 (parent), red bar = mean, read off a plot
[2] = biological target: T2, Aurora B (endogenous), Q96GD4; assay: as above; conditions: chain shown with the change, red bar = mean, read off a plot

| response ([1]; parent: est. 1.2) [a.u.] | response ([2]; n = 22 (mutant), n = 20 (parent), parent: est. 0.85) [a.u.] | response ([1]; parent: est. 1.4) [a.u.] | response ([2]; n = 23 (mutant), n = 10 (parent), parent: est. 1.2) [a.u.] | Binder |
| --- | --- | --- | --- | --- |
| 0.18 | 0.1 | – | – | Sgo1_(130–280)-LacI-GFP, Q5FBB7 V188A; S189A; V190A; R191A (protein) RNLFVKDLPQIPLEETELPGQGESFQIEDQIPTIPQDTLGVDFDSGEAKSTDNVLPRTAAAASSLKKHCNSICQFDSLDDFETSHLAGKSFEFERVGFLDPLVNMHIPENVQHNACQWSKDQVNLSPKLIQPGTFTKTKEDILESKSEQTK |
| – | – | 0.25 | 0.15 | Sgo1_(159–240)-LacI-GFP, Q5FBB7 V188A; S189A; V190A; R191A (protein) QIPTIPQDTLGVDFDSGEAKSTDNVLPRTAAAASSLKKHCNSICQFDSLDDFETSHLAGKSFEFERVGFLDPLVNMHIPENV |

— article PMC9253516
